{"source": "the DeepSol protein solubility set", "data": [{"test": "soluble on expression in E. coli; label from the status in PepcDB or PDB records", "values": [{"sequence": "NLYFQSARFALTVVRHGETRFNKEKIIQGQGVDEPLSETGFKQAAAAGIFLNNVKFTHAFSSDLMRTKQTMHGILERSKFCKDMTVKYDSRLRERKYGVVEGKALSELRAMAKAAREECPVFTPPGGETLDQVKMRGIDFFEFLCQLILKEADQKEQFSQGSPSNCLETSLAEIFPLGKNHSSKVNSDSGIPGLAASVLVVSHGAYMRSLFDYFLTDLKCSLPATLSRSELMSVTPNTGMSLFIINFEEGREVKPTVQCICMNLQDHLNGLTETR", "soluble on expression in E. coli": "soluble"}, {"sequence": "MGAEGRLYWDEGEGEGPYRLDRFRLLPAEGGFRLLWQGKGELPWPWARVRLRLFGKRLLRAHVEGEAHAAEEGGVLLPPFREALLEVEGLEHHHHHH", "soluble on expression in E. coli": "not soluble"}, {"sequence": "MGSDKIHHHHHHMPRTILKDEHWTRLKPILLELNIYDKGNLRNTVEGVLYRMRVGCPWRDLPEHFGKPNTVYKAYQRWFRSNKLIALFALLIKDSDCEWVFIDGTHIKAHQHSSIGHENMQGISKSVAGRATKIHLAVDAHGNPITFILSDGTTHDVKVAPDLIDKDLSDTDILCADKGYDSDALRTHIKQAGCFNNIPRRRNTKSTNNHMDWHLYKTRHLVENAFAKLKHYRAVATRFDKLKQSYENTVALACAYLWLKL", "soluble on expression in E. coli": "not soluble"}, {"sequence": "GIPMETKGGTVKAASGFNATEDAQVLRKAMKGLGTDEDAIIGVLACRNTAQRQEIRTAYKSTIGRDLLEDLKSELSSNFEQVILGMMTPTVLYDVQELRRAMKGAGTDEGCLIEILASRNPEEIRRINQTYQQQYGRSLEEDICSDTSFMFQRVLVSLTAGGRDEGNYLDDALVKQDAQDLYEAGEKRWGTDEVKFLSILCSRNRNHLLHVFDEYKRISQKDIEQSIKSETSGSFEDALLAIVKCMRNKPAYFAERLYKSMKGLGTDDSTLIRVMVSRAEIDMLDIRANFKRLYGKSLYSFIKGDTSGDYRKVLLILCGGDD", "soluble on expression in E. coli": "soluble"}, {"sequence": "MEEDNQSPSPSESSIKTDYDAKIRVLYSTKNNKSEEESVFAHRLVLSTFSPLFQQLLQDATSSSTSTTSSTSSDDVISISLDLTAFPNALAAFKVILEALYTGDIKMKSVAANEVLAVSRHCQISSLEPKIMSAVAPLPLNLANILNCSQSVPLNSNPFLQYTSPPIQNYLSSMISLWSNPFFSALFGNTTGTPSLPFSPQSDTENSRTQSEGSSPRANSTSTPPTTDLEKIVPNDDKEGWCRNKKYIEKVDGGFMCTVCRKIYGRYNSVSYHVTIYHRNPPIKCEENGCNFSTREARYIHFHKYYRHHIPLPENIDLGSRKCPFCRHVSKSPAMLEKHIARHETDGTSGGTPGALKRAQSKKKIVPTMTTDVIDPNVSSIFAPTNPAGNIPIQCSLCPFSTHSTDLLFIHLAMQHAQELAQCSGLLADNSSETSTSSSSDGEPMITDIDLDVKPLIDQSLMLHLNTPLSN", "soluble on expression in E. coli": "not soluble"}, {"sequence": "MTDEERIELQQNNPLHGLKLETMLQELVDFYGWDILDTAMRFNCFNTKPSIASSVKYLKKTEWAREKLENFYLYRFKRMPRASEEEYNLPPRARTFPHGLEPKEPMPLTVDSILNSQAKAASSFKKRSSRGRPTRRLEHHHHHH", "soluble on expression in E. coli": "soluble"}, {"sequence": "MGSDKIHHHHHHMEKEIAIITLHGMGDYKPNYFEALKNQLEKKLGTKWDKIAFEPVQYQPILQQNQIKIWQRMNSYPLDGSILRRFLLFGFSDAGSLEYSARSKVSVQYIEVQKEIMQALDKLYVELGNNDKPVIIIAQSLGCQVISNYIWDAKHDSGIFNGLEPDASAQLKSFRRLNSCVHLLTTGCNIPMFVAGLNPIEAIQKPNNEFTWFNYYDRDDVLGWPLSPLSDSYGALVKDHEINAGGIFSSWNPWSHGQYWTDKDVLNSLIDRIRRYI", "soluble on expression in E. coli": "not soluble"}, {"sequence": "MQVLLLEDEPRLGQAVARALAAQGYGVRWARSLGEAREAFLELEPDLMVLDVRLPEDEDGGFRFAKEAREAGYKGPILFLTARDALEDRVQGLDLGGDDYLVKPFHLEELLARVRALLRRASEVKASRVRLGPLEVDLAGRGVYLAGRRVDLSLKEFALLETLLLHPGRVFAPEELAERVFGDPEKVGAVKVYVHYLRQKLFPEVVRTVPGGYRLGHEP", "soluble on expression in E. coli": "soluble"}, {"sequence": "MAAKVVLDFEKPLYELEEKLNEMRVYLKSGEVDSMSEGRAGLKREIESLEAKVESLRKTIYKNLTRWQKVQLARHPERPYTLDYIYMMMKDFVELSGDRNFGDDKAIIGGFARLEDESAGFSQSVMVIGHQKGRDTKSNLYRNFGMAQPEGYRKALRLMKLAEKFRKPVITLIDTPGAFPGIEAEERGQAEAIARNLYEMAALKVPVICVIIGEGASGGAIGIGVGDRILMAENAWYSVISPESCSSILWRSWNFKEQAAEALKLTADDLLAQGIIDRIVTEPLGGAHHNPEQMASTLKSILIEELQGLLTKDARTLVDERIAKFSGMGVWEES", "soluble on expression in E. coli": "not soluble"}, {"sequence": "MGSDKIHHHHHHMKFFSAPSPATRPPMRNRLPPLNPLRAFEAAARCGTVSAAADELHVTASAVSHQIRILESTLGVALFVRSKARVKLTPEGEALLEPVGAAFDMIANATVRLDSPAAAGDLVVSTPLSLTSRWLARHIGDFLERYPGIHLKVIPSNDDRETYSPDVDVCIRYGEGNWRNRRVELLAHPALFPVVSPALMNGPDAIRKVQDLAGRTLFCEHAGSWMRWLAEANADKLPGIRILEIGNAHIGVEAAVHGQGVALGDSLSVRDDLLDGTLVRPFSAAVPSRHAYYLVTRHELADSPLVTAFTTWLRACLA", "soluble on expression in E. coli": "not soluble"}, {"sequence": "MAKVVIPNGAEGEEAVYREQVIREYSGNPFIEALPPIYAPEEVVEKLAVYPPYSEEERNLDAHYRIHLTQKLFHCFQPLPQHLDLESRISRVIRQGYLPRNPVSKEYVISLKDGYRAVQNCDINANQQFRSTACGFTIIGVSGMGKSVSINRVLSMYPQVIVHSRYKGQGFSFYQLVWLKLDTPFDGSVKGLCIDFFNKVDQLMGTDFYKKVANSRKSVDYMLTLMCQVVRNTGLGLLIIDEVQHLCGARGLGDERMLNFFVTLVNTAGVPIILIATPKAMSILQSEFRQARRGSGQGDMVWERLQYDENFEILLDSLWQYQWTRKESILTKSMRELLYEESQGIIDIICKIIVMAQTIAISTGKEQVDEKLIQQVAREHLQLVRPMILALKSGNIREIAKYSDICTAEIDYGKLVNQEKLPVEMRMRIRAIKEQKEKREKENKTSKMEQALYKLAELGIDVAKARKAVEAVFEAEGHNIDEGQLVIKAIQVLSGNTTEKKSKKVKTTPKSENDLRYIVEEGRNQGKSAYDALKDKGYIKGEKNDTLFKAV", "soluble on expression in E. coli": "not soluble"}, {"sequence": "MENFSLLYSSEEDALLSYADIRNFQLVWNMVDIEQKRSIPVRRVKFLLRLLKGRLEVNDESDGLLFKHMCHEMERLHNGDDVSFHDVLNMLSYRSVDIRKSLQLEELLQREELEYIIEEEVAKHTIRAWLENCLKNIKAKQNNTLGKMSSIGSTFAFPQSQEVLTKGVVLTEASPEEDSLQGDKGSGKKKAQRGNSITEIVAEAQKKSVKRATDKISERRGTLRQMQMGTYDELEEVEEDEDTDGEIRRSSFEYSGVDMIQMSHEKQLEDVKTWWTLCD", "soluble on expression in E. coli": "not soluble"}, {"sequence": "MGSDKIHHHHHHMAINTTPLSESSKNNPDKQNNFVIALAGNPNVGKSTVFNRLTGLKQHTGNWPGKTVIKAEGTFSHRNRHYTLVDLPGTYSLHASSSDEEVARNFICFSRPDITLVVCDATCLERNLNLVLQILEITDRVLVCVNLLDEAERKGIQVDIAMLARQLGIPVVGTAARSGRGLESLKNVLDDMLAGKIAIQPRQLVYDPELEASINRIEKRLAPYLPAWINSRWVTLRVLERDFSILEHISNHKNNDFPRQVLKEEVALCLR", "soluble on expression in E. coli": "not soluble"}, {"sequence": "MGSDKIHHHHHHMLKFLKDSKVDFTVRCCGVSSIPCALFFLTRSTNRTYSILVKEWKNIEKLLDPFFTKGIDQLSMVDALRILMRIGDTLNGVRNHERLYRYIDSLFPAQKIPGGLEIWAFDLFEGKEVVFKEGDDLRRALKISLSFPILYRPYEDRYVPITWITGVPEGELTVLFDVKKEKNPPRNALEYLFLSTTARTKHLERERIKKAKSLRIACTSLSPVSTTRRAYEEFSRFFEEVVL", "soluble on expression in E. coli": "not soluble"}, {"sequence": "MKVALGGTFEPLHEGHKKLIDVAIKLGGRDITIGVTSDRMARARIRSVLPFAIRAENVKRYVMRKYGFEPEIVKITNPYGKTLDVDFEYLVVSPETYEMALKINQKREELGKRKITIVKVDWMMAEDGKPISSTRIKRGEIDRYGGII", "soluble on expression in E. coli": "soluble"}, {"sequence": "MIKTDLNDFAWFVHVVEEGGFAAAGRALDEPKSKLSRRIAQLEERLGVRLIQRTTRQFNVTEVGQTFYEHCKAMLVEAQAAQDAIAALQVEPRGIVKLTCPVTLLHVHIGPMLAKFMARYPDVSLQLEATNRRVDVVGEGVDVAIRVRPRPFEDSDLVMRVLADRGHRLFASPDLIARMGIPSAPAELSHWPGLSLASGKHIHRWELYGPQGARAEVHFTPRMITTDMLALREAAMAGVGLVQLPVLMVKEQLAAGELVAVLEEWEPRREVIHAVFPSRRGLLPSVRALVDFLTEEYARMVEE", "soluble on expression in E. coli": "not soluble"}, {"sequence": "MYIIAHRGASGYAPENTIAAFDLAVKMNADMIELDVQLTKDRQIVVIHDDRVDRTTNGSGFVKDFTLEELQKLDAGSWYGPAFQGERIPTLEAVLKRYHKKIGLLIELKGHPSQVGIEEEVGQLLGQFSFSINNIVQSFQFRSVQRFRELYPSIPTAVITRPNFGMLSRNQMKAFRSFANYVNIKHTRLNRLMIGSINKNGLNIFAWTVNNQKTAAKLQAMGVDGIVTDYPDFIIKDGKHENILEHHHHHH", "soluble on expression in E. coli": "not soluble"}, {"sequence": "RHQVESSPLFRALALRCNQTMVTLRSANMFHAYGFLAKVFEILAKHKISVDLITTSEISVSLTLDQTDTSGGAPQLPQAAREELEELCKVEVEHDLCLVALIGNKMSERKGYAKQVFGTLEDLNLRMICYGASPHNLCFLVNESVAKQAIQKLHTELFEQ", "soluble on expression in E. coli": "not soluble"}, {"sequence": "MASGDLVHYVITVMLHEDTLTEINELNNYLTRDGFLLTMTDDEGNIHELGTNTFGLISTQSEEEIRELVSGLTQSATGKDPEITITTWEEWNSNRK", "soluble on expression in E. coli": "not soluble"}, {"sequence": "MSASEFTLVPTTESDRTYIARLNFLTDVFGDEHADIGADFLEDYRFYVKQWDPTNGGLIAWSPKMIPAGGAWLVWGNNNDHGYGYVSEDIPEVAIAIEPRYRGKGVGSILLNKSLELARTLGAPGLSLSVDDGNPRAKKLYERLGFQHIRHSDAGFSIMCYRF", "soluble on expression in E. coli": "not soluble"}, {"sequence": "MKARSKKSVGIVALALLMGKVYAAPTPAACPDVSVIKQHQEGQGFVYTAPAPNNQQWRGENPRGDAKDINSIAFKSANIRNRSAITGNAFVACDYEGNSSAGIRMSLETLKVATPVGKAWNGLSCSESNPSACTFEY", "soluble on expression in E. coli": "not soluble"}, {"sequence": "MDRFNEYRIMWVLVLFDLPTETKKEKKAYADFRKNLQKDGFTMFQFSIYVRHCGSSENAAVHIKRVKSFLPEFGHVGIMCITDKQFGDIELFYGKKVQDVNTPGQQLELFLEHHHHHH", "soluble on expression in E. coli": "not soluble"}, {"sequence": "MSLKITWLGHAAFLLEGSMKVLIDPFLTGNPNAPVKPEEVKADYILVTHGHGDHLGDAVEIAKRNNAPIICIHELSRILSRYDVETMGMNMGGTARTGSIAVTMVPAWHSADLEDEQGNIISAGLPAGFIVSMDGVRVYHTGDTDVFLDMQLIGELHRPDVMLLPIGDYYTMGIAGAVKALELVKPKVAIPMHYNTFPLVEKDPEDFRKAVKAKGLDVEVVILKPGESYEFNKEGGSHHHHHH", "soluble on expression in E. coli": "soluble"}, {"sequence": "MQINNQSRDVFYVSDGTAITCETLGHVVLGQFPFIPNEKTFPFVESQDKVADVVKEIETSYQRNGVKPLVFFSIVVPGVREMLLEAPAYSYDVLESIVQKVQDDIQMAPAPKLQRSRSVGKDSDTYFDRIAAIEYTLAHDDGITLKGLEQADIILLGVSRSGKTPTSLYMAMQFGLRVVNYPFIAEDVKMMRLLPEFEVHRHKLFGLTITPERLNEIRENRLSGSDYASEEQCKLELDTVEALFRREAIPYINTSSLSVEEISTRILERAGMKRRLFGLEHHHHHH", "soluble on expression in E. coli": "soluble"}]}]}
